Measured values: patent publication US20090311253A1 (AbbVie / Abbott, published 2009)

Legend:
Recombinant Human IL-13 [1] = target: T1, Recombinant Human IL-13 (human, UniProt P35225 35-146, limits assumed); experiment: Biacore SPR
Recombinant Human IL-4 [2] = target: T2, Recombinant Human IL-4 (human, UniProt P05112 25-153); experiment: Biacore SPR
T2 sequence (looked up): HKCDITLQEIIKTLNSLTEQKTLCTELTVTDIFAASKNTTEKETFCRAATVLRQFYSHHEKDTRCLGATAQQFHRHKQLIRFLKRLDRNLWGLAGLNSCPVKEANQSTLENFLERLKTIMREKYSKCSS

Recombinant Human IL-13 [3] = target: T1, Recombinant Human IL-13; experiment: direct bind ELISA
Recombinant Human IL-4 [4] = target: T2, Recombinant Human IL-4; experiment: direct bind ELISA
Recombinant Human IL-13 [5] = target: T1, Recombinant Human IL-13; experiment: cell-based or functional assay
Recombinant Human IL-4 [6] = target: T2, Recombinant Human IL-4; experiment: cell-based or functional assay

T1 sequence (P35225 35-146 limits assumed): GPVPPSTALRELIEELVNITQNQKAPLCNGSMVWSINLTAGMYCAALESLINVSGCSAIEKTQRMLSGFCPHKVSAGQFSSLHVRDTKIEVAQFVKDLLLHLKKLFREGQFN

Kd (Recombinant Human IL-13 [1]): 0.0497 nM | koff (Recombinant Human IL-13 [1]): 8.69e-05 s⁻¹ | kon (Recombinant Human IL-13 [1]): 1.75e+06 M⁻¹ s⁻¹ | Kd (Recombinant Human IL-4 [2]): 4.86 nM | koff (Recombinant Human IL-4 [2]): 0.000343 s⁻¹ | kon (Recombinant Human IL-4 [2]): 70600 M⁻¹ s⁻¹ | EC50 (Recombinant Human IL-13 [3]): 5.89 nM | EC50 (Recombinant Human IL-4 [4]): 748 nM | IL-13 Neutralization Assay EC50 (A549 cells, hTARC) (Recombinant Human IL-13 [5]): 0.09 nM | IL-4 Neutralization Assay EC50 (A549 cells, hTARC) (Recombinant Human IL-4 [6]): 0.09 nM
B1: DVD267 (bispecific antibody, human IgG1, kappa)
heavy: not shown
light: DIQMTQSPSSLSASVGDRVTISCRASQDIRNYLNWYQQKPGKAPKLLIFYTSKLHSGVPSRFSGSGSGTDYTLTISSLQPEDIATYYCQQGLTPPLTFGGGTKVEIKRTVAAPDIVLTQSPSSLSASVGDRVTITCKASQSVDYDGDSYMNWYQQKPGKAPKLLIYAASNLESGIPSRFSGSGSGTDFTFTISSLQPEDIATYYCQQSNEDPPTFGQGTKVEIKRTVAAPSVFIFPPSDEQLKSGTASVVCLLNNFYPREAKVQWKVDNALQSGNSQESVTEQDSKDSTYSLSSTLTLSKADYEKHKVYACEVTHQGLSSPVTKSFNRGEC
notes: outer AB051, inner AB027; vectors V1, V2
